According to patent WO2021212049A2:

How the values were obtained:
Settings in all cases: remark: other sources report otherwise
[1] = biological target: T1, untagged SARS-CoV-2 RBD expressed in E. coli BL21(DE3) and oxidatively refolded (RBDWT) (SARS-CoV-2), P0DTC2; test: BLI, RBD expressed in E. coli, 1:1 Langmuir fit
[2] = biological target: Mammalian SARS-CoV2 RBD (residues 331-524) with C-terminal 6XHis Tag (SARS-CoV-2), P0DTC2; test: ELISA on coated antigen, anti-human IgG-HRP
[3] = biological target: T1, untagged SARS-CoV-2 RBD expressed in E. …; test: BLI, RBD expressed in E. coli
[4] = biological target: bacterially derived SARS-CoV RBD (SARS-CoV), P59594; test: BLI, bacterially derived SARS-CoV RBD

B1: mAb 2H04 (antibody)
chain 1: EVQLQQSGAELVKPGASVKMSCKASGYTFTSYWITWVKQRPGQGLEWIGDIYPGSGSTKYNEKFRSEATLTVDTSSTTAYMQLSSLTSEDSAVYYCARWDFYGSRTFDYWGQGTTLTVSS
chain 2: DIVLTQSPAILSVSPGERVSFSCRASQNIGTIIHWYQQRTNGSPRLLIKYASESVSGIPSRFSGSGSGTDFTLSINSVESEDIADYYCQQSSSWPLTFGAGTKLELK
- Kd [1]: 40 nM
- minimum positive concentration [2]: < 5 µg/mL
- half-life [3]: 1.27 min
- Kd [4]: 1420 nM
- half-life [4]: 0.43 min
